Measured values published in PMC2745277.

Target: T1, SurR (Pyrococcus furiosus, UniProt Q8U4J2 1-232)
T1 sequence: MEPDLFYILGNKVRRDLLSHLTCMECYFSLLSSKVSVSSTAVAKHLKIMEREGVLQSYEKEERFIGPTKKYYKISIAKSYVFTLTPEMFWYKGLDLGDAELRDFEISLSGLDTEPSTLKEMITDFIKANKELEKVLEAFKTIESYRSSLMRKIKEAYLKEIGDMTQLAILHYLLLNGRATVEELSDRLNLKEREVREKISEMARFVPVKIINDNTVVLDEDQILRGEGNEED
Experiment: EMSA

B1: SELEX-derived 40-bp probe GTTcacAAC (dsDNA)
DNA 1: GCTTCATCCGTGACGTTCACAACCAAATAGATTGAGGATC
DNA 2: GATCCTCAATCTATTTGGTTGTGAACGTCACGGATGAAGC
binding result: binds
